The target of experiment [1] is IL-17RH1 (PRO5801) ECD (residues 1-275), baculovirus, His-tag removed (human). The experiment in a line: SPR (BIAcore 1000), IL-17RH1 ECD immobilised, IL-17E in solution, 1:1 model.
The target in experiment [2] is recombinant IL-17E (baculovirus, His-tag removed by thrombin) (human). The experiment in a line: SPR (BIAcore 1000), IL-17E immobilised, IL-17RH1 ECD in solution, 1:1 model.

In experiment [1], “recombinant IL-17E (baculovirus, His-tag removed by thrombin) (ligand)” displayed a Kd of 1.4 nM, a koff of 0.00062 s⁻¹ and a kon of 430000 M⁻¹ s⁻¹.
Take “IL-17RH1 (PRO5801) ECD (residues 1-275), baculovirus, His-tag removed (receptor)”: in experiment [2], the equilibrium dissociation constant (Kd) stood at 1.1 nM, the koff is 0.0007 s⁻¹ and the kon came out at 670000 M⁻¹ s⁻¹.
